Usually Km stands for the substrate concentration at which the rate is half of its maximum.

Substrate in this data set: CC/C=C\C/C=C\C/C=C\C/C=C\C/C=C\CCCC(=O)O
Kind of data set: purified protein. Type of data set: biochemical, Myxococcus fulvus. Particulars: PBS, no detergent; O2 co-substrate; fit over all substrate concentrations up to 200 µM.

B1: MF-LOX1 (Myxococcus fulvus LOX1) (Myxococcus fulvus) (protein)
chain: MTVEYKLRIRTSTKLGAGTDANISVVLVGTRGESGPHVLDKPFHNDFEAGAEDVYSVQASDDVGALLLLRFGNTGGIAADWLLDHAWVTAGERQWSFPFFRWVRAGATVDVLEGTAKLARHAGCEREATARRELLEARRRMYPWRPAEATEGLPGALDLSEAQPLPKDELYRGLTEGSYEVVIARTLAAIKLHLPLLSKAWNGLVDIFDFFKGLEVPRLAPRWQDDLEFARQAVQGINPLHITLIPQLPQGMPLTDEDVKGVLSPGTTLARALDSKRIFLLDFDILEDIPMYRKVDEDGVEERRWAPAARCLLYLDDLRQLRPLAIQLGRDGGKDPVFTPNDDTYDWLAAKIYLRCSEGNTHQMVAHALRTHFVAEPFVMATMRNLPDPHPVYKLLRRHFRYTLAINEGARKGLLAAGGVFDDFIATGGPDKGHLQLGKKGYQRWKLTDNRPREDLEHRGVLDPAVLPYYPYRDDALPLWDALEEYVGGVLRYFYPTDADLEGDTEMQHWWKDLTEHGLPVDKLPCRELSRVDDLVDILTTVVFTVSVQHAAVNYLQYEHYAFVPNAPLCMRREPPRQKGTLCAEDLPEMIPSRSQTLWQVAIGRALSSFGDDEEYLLNEGGWREEYFQEPQVRALRERFEQRLRAQRDVVAARNAGAQVPYTVLSPDRIPCGITV
notes: full length, native protein 676 residues; N-terminal hexa-His tag kept, 32 extra N-terminal residues (pET28b); E. coli, Ni-agarose
In the case of B1, the Km is 70 µM and the kcat result is “(3.1 ± 1.2) x 10^−2 s^-1”.

(Values after publication PMC6612559, “Functional characterization of a novel arachidonic acid 12S‐lipoxygenase in the halotolerant bacterium Myxococcus fulvus exhibiting complex social living patterns” (MicrobiologyOpen, 2018).)
